Test results: patent US20060062797A1 (RESEARCH FOUNDATION OF STATE UNIVERSITY OF NEW YORK AT …, published 2006)
Values belong to the binder of their own block, whether it stands above or below them. No end group written: not given here.

What was measured:
[1] = target: Aβ1-42 peptide (SEQ ID NO: 157) (Homo sapiens (Human), UniProt P05067 672-713); assay: cell-based or functional assay
[2] = target: the molecule itself; assay: 2D solid-state NMR (DARR) on fibrils, self-association

- thioflavin T fluorescence, inhibition of fibrillization at Aβ1-42:I1 molar ratio 1:20 [1]: 70%
B1: amyloid fibril inhibitor protein RGTFEGKF-NH2 (SEQ ID NO: 1) (peptide)
peptide: RGTFEGKF-NH2
modifications: not fully specified; printed as RGTFEGKF-NH2

B2: truncated glycophorin A peptide GpA70-86 (SEQ ID NO: 158) (peptide)
peptide: EPEITLIIFGVMAGVIG
modifications: not fully specified
notes: 17-residue fragment of glycophorin A, residues 70-86, that forms fibrils; NMR samples were 13C-labelled at Gly79, Gly83 or the Met81 methyl; also called truncated GpA; glycophorin A transmembrane peptide fragment
- binding result [2]: binds
